Measurements as given in publication PMC5356828.

Columns and labels:
[1] = target: P-glycoprotein (human (endogenous in primary skin fibroblasts)) (UniProt P08183); experiment: co-IP; lysates of hypertrophic scar fibroblasts (HF) treated with latrunculin-A (0.2 μM) or DMSO for 12 h; IP with anti-P-glycoprotein or anti-MRP1 antibody, immunoblot for actin
[2] = target: multidrug resistance-associated protein 1 (human (endogenous in primary skin fibroblasts)) (UniProt P33527); experiment: as above

Substance: actin (from UniProt P60709 1-375) (natural protein)
- percent loss of the co-precipitate after latrunculin-A [1]: 90%
- percent loss of the co-precipitate after latrunculin-A [2]: 70%
